Assay results: PMC13541614 (Nature Methods, 2026)

Target: H5N1 influenza hemagglutinin (HA) of A/Vietnam/1203/2004, native (wild type) (Influenza A virus A/Vietnam/1203/2004 …, UniProt Q5EP31, strain)
Assay: BLI
Conditions: both partners purified

B1: AZD3152 (anti-SARS-CoV-2 RBD antibody), IgG (antibody, V domains shown)
VH: EVQLVESGGGLVQPGRSLRLSCAASGFPFDDYAIHWVRLAPGKGLEWVSSISWDSGSIGYADSVKGRFTISRDNAKNSLYLQMNSLRAEDTALYYCAKGAFPGYSSGWYYGLEVWGQGTTVTVSS
VL: QSVVTQPPSASGSLGQSVTISCTGTSSDVGGYNYVSWYQQHPGKAPKLMIFEVSKRPSGVPDRFSGSKSGNTASLTVSGLQAEDEADYYCSSYAGNKGVFGGGTKLTVL
notes: also called control antibody; source: Expi293F, transfected, purified (HiTrap MabSelect PrismA); copies: 2 + 2
  binding result: no binding (tested: 100 nM)
